For one molecule, IC50 results are on record in PMC8782417, “A PDK-1 allosteric agonist neutralizes insulin signaling derangements and beta-amyloid toxicity in neuronal cells and in vitro” (PLoS ONE, 2022).

As usually defined, the IC50 is the concentration that inhibits the measured activity by half.

In the assay the target is T1, FAM-labeled Aβ42 peptide (carboxy-fluorescein conjugated to the N' terminus), prepared as ADDL oligomers (UniProt P05067 672-713, carboxy-fluorescein (FAM) on the N-terminus; the labelled peptide was mixed with wild type Aβ42 in a 1:2 molar ratio).
T1 construct: Aβ42, the 42-residue β-amyloid peptide cut from the amyloid precursor protein (APP); Mixed with unlabelled wild type Aβ42 (1:2 molar ratio), then incubated at 4 °C for 24 hrs to oligomerise (ADDLs); also called FAM-Aβ42; FAM tagged-Aβ; source: bought: Anaspec (FAM-Aβ42); Aβ peptides from BioSource
T1 sequence (P05067 672-713): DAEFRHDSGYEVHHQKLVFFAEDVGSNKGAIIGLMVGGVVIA
The assay can be described thus: fluorescence polarisation; in solution; FAM-Aβ42 probe (ADDL oligomers) fixed at 200 nM, recombinant PDK-1 or Akt-1 titrated 0-10 μM (Akt 0 to 12.5 μM) until saturation; 30 min, 25°C; 100 mM NaCl, 20 mM phosphate pH7.4, 2 mM DTT, 0.1% BSA, 2% DMSO; 2 experiments each. To be noted: both partners purified. In general terms: In fluorescence polarisation assays a small probe gives low polarisation when free and higher when bound to something large.

B1: Recombinant human PDK-1 (active) (enzyme, UniProt O15530 1-556, looked up)
chain: MARTTSQLYDAVPIQSSVVLCSCPSPSMVRTQTESSTPPGIPGGSRQGPAMDGTAAEPRPGAGSLQHAQPPPQPRKKRPEDFKFGKILGEGSFSTVVLARELATSREYAIKILEKRHIIKENKVPYVTRERDVMSRLDHPFFVKLYFTFQDDEKLYFGLSYAKNGELLKYIRKIGSFDETCTRFYTAEIVSALEYLHGKGIIHRDLKPENILLNEDMHIQITDFGTAKVLSPESKQARANSFVGTAQYVSPELLTEKSACKSSDLWALGCIIYQLVAGLPPFRAGNEYLIFQKIIKLEYDFPEKFFPKARDLVEKLLVLDATKRLGCEEMEGYGPLKAHPFFESVTWENLHQQTPPKLTAYLPAMSEDDEDCYGNYDNLLSQFGCMQVSSSSSSHSLSASDTGLPQRSGSNIEQYIHDLDSNSFELDLQFSEDEKRLLLEKQAGGNPWHQFVENNLILKMGPVDKRKGLFARRRQLLLTEGPHLYYVDPVNKVLKGEIPWSQELRPEAKNFKTFFVHTPNRTYYLMDPSGNAHKWCRKIQEVWRQRYQSHPDAAVQ
notes: phosphoinositide-dependent protein kinase-1 (PDK-1), human, recombinant, active; printed size 59 kDa; Commercial protein; also called phosphoinositide-dependent protein kinase-1; source: bought: Amsbio
With B1, the half-maximal inhibitory concentration (IC50) was around 1 µM.
